Legend:
[1] = molecular target: Listeria phage A118 integrase, N-terminally histidine tagged, full-length (Listeria phage A118); experiment: SEC; FPLC Superdex-200 10/300 GL; 20 mM HEPES pH 7.5, 1 M NaCl, 1 mM DTT, 10% glycerol; 0.4 ml/minute; 23°C
A118 integrase (HisInt) [2] = molecular target: T1, A118 integrase (HisInt) (Listeria monocytogenes phage A118, UniProt Q8Y4U8 1-452); experiment: EMSA; details: 20 mM HEPES pH 7.5, 100 mM NaCl, 0.1 mg/ml BSA, 5 mM spermidine, 5 mM DTT, 5% glycerol, 50 ug/ml salmon sperm DNA, about 0.1 pmol probe in 10 ul, 30 C 30 min …
T1 sequence: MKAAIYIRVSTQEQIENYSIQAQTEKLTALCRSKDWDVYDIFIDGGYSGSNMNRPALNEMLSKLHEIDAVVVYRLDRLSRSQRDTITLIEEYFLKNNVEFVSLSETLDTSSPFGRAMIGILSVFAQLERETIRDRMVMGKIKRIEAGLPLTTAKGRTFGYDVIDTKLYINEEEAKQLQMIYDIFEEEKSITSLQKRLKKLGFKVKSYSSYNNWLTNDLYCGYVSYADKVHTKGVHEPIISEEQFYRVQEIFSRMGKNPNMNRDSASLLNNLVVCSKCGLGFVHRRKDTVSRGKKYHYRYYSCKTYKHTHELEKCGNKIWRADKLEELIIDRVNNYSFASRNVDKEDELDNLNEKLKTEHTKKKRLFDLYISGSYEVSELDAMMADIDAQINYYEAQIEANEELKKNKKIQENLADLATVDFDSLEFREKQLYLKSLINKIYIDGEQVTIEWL

[3] = molecular target: T2, A118 integrase C-terminal domain (HisInt158-452) (Listeria monocytogenes phage A118) (UniProt Q8Y4U8); experiment: EMSA; details: mainly complex I, 20 mM HEPES pH 7.5, 100 mM NaCl, 0.1 mg/ml BSA, 5 mM spermidine, 5 mM DTT, 5% glycerol, 50 ug/ml salmon sperm DNA, about 0.1 pmol probe in 10 ul, 30 C 30 min …
T2 sequence: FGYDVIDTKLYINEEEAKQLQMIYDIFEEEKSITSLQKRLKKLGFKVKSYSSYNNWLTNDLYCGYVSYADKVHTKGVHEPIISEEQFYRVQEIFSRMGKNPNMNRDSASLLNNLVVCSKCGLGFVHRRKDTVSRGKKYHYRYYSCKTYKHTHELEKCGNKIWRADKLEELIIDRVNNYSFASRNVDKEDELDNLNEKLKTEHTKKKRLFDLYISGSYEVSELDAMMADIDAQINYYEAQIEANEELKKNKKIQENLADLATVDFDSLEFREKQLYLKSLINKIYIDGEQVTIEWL

A118 integrase (HisInt) [4] = molecular target: T1, A118 integrase (HisInt); experiment: EMSA; 810 nM; 20 mM HEPES pH 7.5, 100 mM NaCl, 0.1 mg/ml BSA, 5 mM spermidine, 5 mM DTT, 5% glycerol, 50 ug/ml salmon sperm DNA, about 0.1 pmol probe in 10 ul, 30 C 30 min; 6% PAGE in 0.5x TBE at room temperature; details: protein: recombinant; tags: N-terminal His (pET15b); chain copies: 2; label: 32P; blunt
A118 integrase (HisInt) [5] = molecular target: T1, A118 integrase (HisInt); experiment: protease protection; twofold molar excess of DNA; chymotrypsin or proteinase K; 20 mM HEPES pH 7.5, 100 mM NaCl, 0.1 mg/ml BSA, 5 mM spermidine, 5 mM DTT, 5% glycerol, 50 ug/ml salmon sperm DNA, about 0.1 pmol probe in 10 ul, 30 C 30 min; 6% PAGE in 0.5x TBE at room temperature; details: protein: recombinant; tags: N-terminal His (pET15b); chain copies: 2; blunt
[6] = molecular target: T3, A118 integrase C-terminal domain (HisInt158-452) (Listeria monocytogenes phage A118, UniProt Q8Y4U8 158-452); experiment: EMSA; 810 nM; 20 mM HEPES pH 7.5, 100 mM NaCl, 0.1 mg/ml BSA, 5 mM spermidine, 5 mM DTT, 5% glycerol, 50 ug/ml salmon sperm DNA, about 0.1 pmol probe in 10 ul, 30 C 30 min; 6% PAGE in 0.5x TBE at room temperature; details: protein: recombinant; tags: N-terminal His (pET15b); label: 32P; blunt
T3 sequence: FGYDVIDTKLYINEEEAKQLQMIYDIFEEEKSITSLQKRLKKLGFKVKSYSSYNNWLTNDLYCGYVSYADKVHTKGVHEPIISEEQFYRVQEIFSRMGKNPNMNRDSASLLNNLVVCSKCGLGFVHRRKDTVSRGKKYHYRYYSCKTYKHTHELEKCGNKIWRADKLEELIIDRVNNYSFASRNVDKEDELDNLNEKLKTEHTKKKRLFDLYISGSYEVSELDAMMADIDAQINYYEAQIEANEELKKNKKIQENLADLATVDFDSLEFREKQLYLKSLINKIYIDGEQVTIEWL

A118 integrase (HisInt) [7] = molecular target: T1, A118 integrase (HisInt); experiment: EMSA; predominantly dimer; 20 mM HEPES pH 7.5, 100 mM NaCl, 0.1 mg/ml BSA, 5 mM spermidine, 5 mM DTT, 5% glycerol, 50 ug/ml salmon sperm DNA, about 0.1 pmol probe in 10 ul, 30 C 30 min; 6% PAGE in 0.5x TBE at room temperature; details: protein: recombinant; tags: N-terminal His (pET15b); chain copies: 2; label: 32P; blunt
[8] = dimer complex, apparent, panel assignment by order

Work on “Listeria phage A118 integrase, N-terminally histidine tagged, full-length (enzyme)” yielded a stoichiometry N [1] of 2.

attB 100 bp showed a Kd (A118 integrase (HisInt) [2]) of 72 nM and a Kd ([3]; binds much less than attP) of over 800 nM.

attL 100 bp gave a Kd (A118 integrase (HisInt) [2]; [8]) of 75 nM.

Work on attP 100 bp yielded a Kd (A118 integrase (HisInt) [2]) of 48 nM and a Kd [3] of 145 nM.

In the case of attR 100 bp, the Kd (A118 integrase (HisInt) [2]; [8]) is reported as 60 nM.

B1: attB -oB' half-site (dsDNA)
DNA 1: CCGCGCATAGGAGGAACCCTGGGACGCAAAGAGGGAACTAAACA
DNA 2: TGTTTAGTTCCCTCTTTGCGTCCCAGGGTTCCTCCTATGCGCGG
B1: no binding (A118 integrase (HisInt) [4]).

B2: attP 50 bp (dsDNA)
DNA 1: TTTAGTTCCTCGTTTTCTCTCGTTGGAAGAAGAAGAAACGAGAAACTAAA
DNA 2: TTTAGTTTCTCGTTTCTTCTTCTTCCAACGAGAGAAAACGAGGAACTAAA
B2: binds (A118 integrase (HisInt) [5]).

B3: attP -oP' half-site (dsDNA)
DNA 1: GCCCGACCAAGTTCGCGCAGGAGGGGAAGAAGAAGAAACGAGAAACTAAA
DNA 2: TTTAGTTTCTCGTTTCTTCTTCTTCCCCTCCTGCGCGAACTTGGTCGGGC
B3: no binding (A118 integrase (HisInt) [4]); no binding [6].

B4: attP Po- half-site (dsDNA)
DNA 1: TTTAGTTCCTCGTTTTCTCTCGTTGGACTCCTCCTCGCTCGTCCCAGCCC
DNA 2: GGGCTGGGACGAGCGAGGAGGAGTCCAACGAGAGAAAACGAGGAACTAAA
B4 gave a Kd (A118 integrase (HisInt) [7]) of about 1000 nM.
